Measured values as given in article PMC2217211.

Target: endogenous Xenopus type 1 inositol 1,4,5-trisphosphate receptor (Xenopus laevis (endogenous in oocytes)) (UniProt Q91908)
Test: co-IP

recombinant rat type 3 inositol 1,4,5-trisphosphate receptor, Q63269 1-2670, sequence (Q63269 whole entry): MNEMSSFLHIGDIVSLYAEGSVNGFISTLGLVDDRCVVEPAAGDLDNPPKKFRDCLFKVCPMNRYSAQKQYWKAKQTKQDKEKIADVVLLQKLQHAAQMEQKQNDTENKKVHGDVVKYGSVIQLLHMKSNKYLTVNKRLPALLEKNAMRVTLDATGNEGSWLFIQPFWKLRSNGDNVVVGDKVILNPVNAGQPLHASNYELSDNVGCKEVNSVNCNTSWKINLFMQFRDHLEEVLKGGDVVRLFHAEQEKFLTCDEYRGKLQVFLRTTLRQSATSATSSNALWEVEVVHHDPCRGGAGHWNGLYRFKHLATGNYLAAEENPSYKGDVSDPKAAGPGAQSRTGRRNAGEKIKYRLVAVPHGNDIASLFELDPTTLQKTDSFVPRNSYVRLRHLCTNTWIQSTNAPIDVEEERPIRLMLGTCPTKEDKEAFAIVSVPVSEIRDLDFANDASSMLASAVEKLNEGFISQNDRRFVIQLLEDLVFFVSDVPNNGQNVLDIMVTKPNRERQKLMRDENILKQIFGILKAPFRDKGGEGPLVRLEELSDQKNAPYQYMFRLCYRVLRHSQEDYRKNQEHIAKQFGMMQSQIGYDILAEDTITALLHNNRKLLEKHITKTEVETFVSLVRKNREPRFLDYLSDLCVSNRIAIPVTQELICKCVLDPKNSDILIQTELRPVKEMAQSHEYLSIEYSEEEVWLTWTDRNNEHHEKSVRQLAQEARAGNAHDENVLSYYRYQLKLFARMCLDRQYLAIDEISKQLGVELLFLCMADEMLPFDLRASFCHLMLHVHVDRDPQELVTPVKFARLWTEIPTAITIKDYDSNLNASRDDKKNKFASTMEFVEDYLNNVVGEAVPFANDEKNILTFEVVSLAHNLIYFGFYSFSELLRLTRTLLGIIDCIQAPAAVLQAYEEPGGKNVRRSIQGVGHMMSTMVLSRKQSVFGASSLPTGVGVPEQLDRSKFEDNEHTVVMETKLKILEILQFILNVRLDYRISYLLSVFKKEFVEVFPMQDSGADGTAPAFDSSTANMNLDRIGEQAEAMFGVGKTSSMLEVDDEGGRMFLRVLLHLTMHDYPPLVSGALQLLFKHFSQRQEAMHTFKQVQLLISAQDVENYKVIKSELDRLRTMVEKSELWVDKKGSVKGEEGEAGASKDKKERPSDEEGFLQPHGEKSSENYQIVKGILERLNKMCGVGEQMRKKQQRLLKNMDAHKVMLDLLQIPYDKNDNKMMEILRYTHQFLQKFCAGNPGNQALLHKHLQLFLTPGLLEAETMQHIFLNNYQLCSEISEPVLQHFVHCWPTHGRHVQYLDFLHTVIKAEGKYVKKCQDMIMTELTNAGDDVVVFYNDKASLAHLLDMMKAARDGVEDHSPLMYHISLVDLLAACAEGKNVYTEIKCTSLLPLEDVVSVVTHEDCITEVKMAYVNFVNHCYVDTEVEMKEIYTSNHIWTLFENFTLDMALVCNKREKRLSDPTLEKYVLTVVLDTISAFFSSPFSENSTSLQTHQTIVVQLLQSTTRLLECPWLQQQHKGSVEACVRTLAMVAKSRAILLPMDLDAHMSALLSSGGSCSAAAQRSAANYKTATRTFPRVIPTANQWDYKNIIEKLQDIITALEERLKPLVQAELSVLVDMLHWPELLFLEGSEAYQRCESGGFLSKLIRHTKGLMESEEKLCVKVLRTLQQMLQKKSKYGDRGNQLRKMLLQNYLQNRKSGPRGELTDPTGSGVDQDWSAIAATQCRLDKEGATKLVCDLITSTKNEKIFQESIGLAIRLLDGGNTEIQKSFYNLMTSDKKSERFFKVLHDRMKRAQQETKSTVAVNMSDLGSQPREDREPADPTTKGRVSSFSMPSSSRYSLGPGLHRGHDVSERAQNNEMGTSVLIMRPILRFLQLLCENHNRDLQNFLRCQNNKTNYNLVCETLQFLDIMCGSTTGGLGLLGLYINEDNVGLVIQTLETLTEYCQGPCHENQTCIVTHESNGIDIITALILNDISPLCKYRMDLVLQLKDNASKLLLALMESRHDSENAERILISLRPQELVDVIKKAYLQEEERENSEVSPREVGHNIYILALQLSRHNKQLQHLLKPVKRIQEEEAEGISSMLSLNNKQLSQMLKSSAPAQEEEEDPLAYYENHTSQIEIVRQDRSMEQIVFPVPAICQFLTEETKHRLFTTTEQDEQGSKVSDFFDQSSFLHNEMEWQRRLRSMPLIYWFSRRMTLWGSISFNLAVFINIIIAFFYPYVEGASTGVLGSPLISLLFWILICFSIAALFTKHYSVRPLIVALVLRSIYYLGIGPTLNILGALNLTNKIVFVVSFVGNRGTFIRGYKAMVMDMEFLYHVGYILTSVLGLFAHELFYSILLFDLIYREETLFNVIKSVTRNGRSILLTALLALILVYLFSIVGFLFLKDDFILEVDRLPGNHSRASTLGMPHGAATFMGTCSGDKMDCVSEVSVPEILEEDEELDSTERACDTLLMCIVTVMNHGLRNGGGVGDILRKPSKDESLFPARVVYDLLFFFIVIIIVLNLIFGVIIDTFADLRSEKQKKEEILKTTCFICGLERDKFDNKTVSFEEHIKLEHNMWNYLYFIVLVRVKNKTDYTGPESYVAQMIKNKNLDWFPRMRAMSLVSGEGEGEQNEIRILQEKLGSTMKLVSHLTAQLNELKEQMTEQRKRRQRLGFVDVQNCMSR

- percent of expressed r-InsP3R-3 in heteroligomers with X-InsP3R-1: 7 to 10%
Substance: recombinant rat type 3 inositol 1,4,5-trisphosphate receptor, Q63269 1-2670
